These results are taken from PMC4830470 (Nature, 2015).

The data set concerns the molecule itself. Description: SEC. (In gel filtration, larger molecules generally elute earlier.)

B1: human class A J-protein DNAJA2 (JA2), wild type (natural protein)
chain: not shown
A word on the stoichiometry N: it is a count of units in the complex or per binding partner. B1: the “stoichiometry N” value was 2.
